The data set in a line: protein stability index of a GFP-peptide fusion (GPS, HEK-293T) (PSI 1-6); higher = more stable. Conditions: c terminus: a fixed tail appended.

± gives the standard deviation.
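Further: 24-mer peptide tiles fused after GFP, lentivirally expressed, FACS-sorted into six equal bins by GFP/DsRed ratio, decoded by Illumina sequencing, PSI is the read-weighted mean bin number.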

In the case of IVTTVTTVQSRPRIDGKLDSPSRS [C2CD2L], the protein stability index by setting is: (treatment: DMSO) 3.4 ± 0.19; (treatment: MLN4924 1 uM, 8 h) 3.49 ± 0.27. For the sequence PSRYAAIYNGGVEAVSTLLGAVAV [SLC19A2], the protein stability index came out at 2.28 ± 0.15 (treatment: DMSO) and 2.06 ± 0.37 (treatment: MLN4924 1 uM, 8 h). Take TVMEKCSDGWWRGSYNGQIGWFPS [NCK2]: the protein stability index amounted to 2.45 ± 0.51 (treatment: DMSO) and 2.26 ± 0.37 (treatment: MLN4924 1 uM, 8 h). For the sequence ERVVREALEKLRSEMEEEKRQAVN [ZMYND11], the protein stability index by setting is: (treatment: DMSO) 4.59 ± 0.46; (treatment: MLN4924 1 uM, 8 h) 4.64 ± 0.063.

Regarding PEEVKSLDSNGAGEKSENNSSNSD [BCL2L13], the protein stability index was 5.84 ± 0.15 (treatment: DMSO) and 5.6 ± 0.23 (treatment: MLN4924 1 uM, 8 h). In the case of KEAVTGSRLGQGIGPIHLNEIQCT [LOXL2], the protein stability index is 3.77 ± 0.61 (treatment: DMSO) and 3.93 ± 0.47 (treatment: MLN4924 1 uM, 8 h). On to EDERVVGKEQGQNLARQWNNCAFL [RAP1B], for which the protein stability index by setting is: (treatment: DMSO) 4.23 ± 0.23; (treatment: MLN4924 1 uM, 8 h) 4.09 ± 0.25. Regarding SPPAAPCPPPPGPAAAPEGDWARL [ZBED3], the protein stability index runs as follows: (treatment: DMSO) 5.08 ± 0.16; (treatment: MLN4924 1 uM, 8 h) 5.07 ± 0.063. Regarding LKDIHDDQDYLHSLGKARTAQVQK [FLOT1], the protein stability index runs as follows: (treatment: DMSO) 4.67 ± 0.18; (treatment: MLN4924 1 uM, 8 h) 4.56 ± 0.24. In the case of FRNPMMSKLRNYRKDLAKLHREVR [VTI1B], the protein stability index was 2.37 ± 0.36 (treatment: DMSO) and 2.46 ± 0.24 (treatment: MLN4924 1 uM, 8 h). In the same order, the values of ARLASPLPREEEIVFPEKLNGSVL [ADAMTS4] are 4.01 ± 0.42 and 4.16 ± 0.15. With VYTNLSSYSPASASSGGAGAAVGT [JUNB], the protein stability index by setting is: (treatment: DMSO) 3.26 ± 0.29; (treatment: MLN4924 1 uM, 8 h) 3.49 ± 0.27. PWAVDPAFAERYAPDKTSTVLTRH [PDLIM7] came in with a protein stability index (treatment: DMSO) of 3.57 ± 0.24 and a protein stability index (treatment: MLN4924 1 uM, 8 h) of 3.56 ± 0.25. With TDRRVLLMFLDICSELNKLCQHFE [SPACA9], the protein stability index stood at 2.44 ± 0.56 (treatment: DMSO) and 2.38 ± 0.42 (treatment: MLN4924 1 uM, 8 h). As to IKLLQSSGADFHKKDKCGRTPLHY [ANKRD44], the protein stability index runs as follows: (treatment: DMSO) 2.42 ± 0.2; (treatment: MLN4924 1 uM, 8 h) 2.6 ± 0.38.

The sequence KVKKSGSRVMFLLVDKETDKRHVE [PDZK1] came in with a protein stability index (treatment: MLN4924 1 uM, 8 h) of 3.4 ± 0.19.

On to FDRNADGYIDPEELAEIFRASGEH [TNNC2], for which the protein stability index is, setting by setting: (treatment: DMSO) 5.32 ± 0.21; (treatment: MLN4924 1 uM, 8 h) 5.25 ± 0.2. With SLQMSSAEMPHTETVSPLPSSMDL [NANOGP8], the protein stability index runs as follows: (treatment: DMSO) 4.93 ± 0.15; (treatment: MLN4924 1 uM, 8 h) 4.94 ± 0.14. As for VVKLLVSHGANVNHTTVTNSTPLR [FEM1B], the protein stability index was determined as 2.25 ± 0.26 (treatment: DMSO) and 2.29 ± 0.27 (treatment: MLN4924 1 uM, 8 h). For SKKFKNCFQSCLCCCCYQSKSLMT [EDNRA], the protein stability index was found to be 2.78 ± 0.1 (treatment: DMSO) and 2.84 ± 0.15 (treatment: MLN4924 1 uM, 8 h). On to QTESALSKKLRAILPKQSRKSMLD [LCOR], for which the protein stability index is, setting by setting: (treatment: DMSO) 3.05 ± 0.098; (treatment: MLN4924 1 uM, 8 h) 3.14 ± 0.2. For the sequence QADLLAHLVPEPDRLEEQLPWLSL [DNAAF3], the protein stability index (treatment: DMSO) is 2.34 ± 0.25 and the protein stability index (treatment: MLN4924 1 uM, 8 h) turned out to be 2.48 ± 0.28. For NKKRGWRRLAQEPLGLEVDQFLED [NOP53], the protein stability index is 4.45 ± 0.35 (treatment: DMSO) and 4.34 ± 0.18 (treatment: MLN4924 1 uM, 8 h). ACNFEPHESFFSLFSDPRSTRLTR [ZER1]: the protein stability index by setting is: (treatment: DMSO) 2.86 ± 0.22; (treatment: MLN4924 1 uM, 8 h) 2.92 ± 0.21. Consider HNAWLSYSLLPQSTAPGLFLVSTH [PCDHGC5], for which the protein stability index reads like this: (treatment: DMSO) 2.51 ± 0.58; (treatment: MLN4924 1 uM, 8 h) 2.63 ± 0.56.

As to AAGKAEVVLGNIIKKKGWRRSSLV [KCNAB2], the protein stability index came out at 2.87 ± 0.24 (treatment: DMSO) and 2.96 ± 0.31 (treatment: MLN4924 1 uM, 8 h). For AESDYSNNIMKCRSRYDGHRIWMY [LOXL2], the protein stability index turned out to be 2.4 ± 0.29 (treatment: DMSO) and 2.1 ± 0.38 (treatment: MLN4924 1 uM, 8 h). In the same order, the values of LRALGELLRRDLGVGTSMEGASPL [FANCE] are 2.92 ± 0.32 and 2.91 ± 0.43. LLSCGKILTGCKNMLFQQNKDGIG [ACSBG2]: the protein stability index runs as follows: (treatment: DMSO) 2.13 ± 0.42; (treatment: MLN4924 1 uM, 8 h) 2.23 ± 0.17. In the case of GHEGSVSSCHFARDSSFLISGGFD [WDR88], the protein stability index was determined as 2.98 ± 0.33 (treatment: DMSO) and 3.1 ± 0.13 (treatment: MLN4924 1 uM, 8 h). Turning to VEVGDKTHWAVGVCRDSVSRKGEL [TRIM39], the protein stability index amounted to 3.06 ± 0.15 (treatment: DMSO) and 3.2 ± 0.17 (treatment: MLN4924 1 uM, 8 h).

In the case of LPTLSHIQEAQSAWKDDFALNSML [YJU2B], the protein stability index amounted to 3.13 ± 0.3 (treatment: DMSO) and 3.04 ± 0.23 (treatment: MLN4924 1 uM, 8 h). For the sequence HTGDKPYKCAECGKSFCHSTHLTV [ZNF8], the protein stability index is, setting by setting: (treatment: DMSO) 3.8 ± 0.12; (treatment: MLN4924 1 uM, 8 h) 3.85 ± 0.36. With LPPIPHVFSAGTGSAILPHFHHAF [PLAGL1], the protein stability index was found to be 2.15 ± 0.28 (treatment: DMSO) and 2.11 ± 0.1 (treatment: MLN4924 1 uM, 8 h). Take ETQLKTLAQFPNTLLGNPKKRMRY [KCNA1]: the protein stability index runs as follows: (treatment: DMSO) 3.25 ± 0.46; (treatment: MLN4924 1 uM, 8 h) 3.61 ± 0.46. As for EMQLSEVQIKTWFQNRRMKHKRQM [VENTX], the protein stability index runs as follows: (treatment: DMSO) 3.26 ± 0.16; (treatment: MLN4924 1 uM, 8 h) 3.19 ± 0.37. In the same order, the values of QELSEVLELLSAPELKSLAKTFHL [FAN1] are 2.26 ± 0.46 and 2.25 ± 0.14. Consider FHCSMSPGNLEKNRYGDVPCLDQT [PTPN9], for which the protein stability index (treatment: DMSO) was found to be 2.79 ± 0.51 and the protein stability index (treatment: MLN4924 1 uM, 8 h) is 2.82 ± 0.47. With SVAFAVAWFLPMPQKSLFFHHIPS [SLC19A2], the protein stability index was 3.65 ± 0.2 (treatment: DMSO) and 3.31 ± 0.23 (treatment: MLN4924 1 uM, 8 h). As to HTPQSSVKTSVPSSKSSGDLVDLF [CLINT1], the protein stability index was found to be 4.03 ± 0.16 (treatment: DMSO) and 4.26 ± 0.053 (treatment: MLN4924 1 uM, 8 h). In turn, QTQTVAAQAQALAAQAAAAAHAAQ [PI4K2A] gave a protein stability index (treatment: DMSO) of 4.33 ± 0.22 and a protein stability index (treatment: MLN4924 1 uM, 8 h) of 4.42 ± 0.19. Turning to AARGKERCVRVFLEHGADPTVKDL [ASB7], the protein stability index (treatment: DMSO) worked out at 3.73 ± 0.17 and the protein stability index (treatment: MLN4924 1 uM, 8 h) was 3.76 ± 0.38. For IPSTPEEVSADDETPNPPQSAQIA [MAGEA10], the protein stability index was found to be 5.42 ± 0.1 (treatment: DMSO) and 5.44 ± 0.16 (treatment: MLN4924 1 uM, 8 h). Take GPGYWMCCHRSQKGFPGCKLGLHD [FBXO34]: the protein stability index stood at 2.21 ± 0.44 (treatment: DMSO) and 2.11 ± 0.56 (treatment: MLN4924 1 uM, 8 h). Consider TEIAEQEGNQKGEQATSLAILRVI [KCNA1], for which the protein stability index was 3.75 ± 0.41 (treatment: DMSO) and 3.56 ± 0.2 (treatment: MLN4924 1 uM, 8 h). Taken in the same sequence, the figures for SEEGQNGSSPKSKTKWTKEDGHRT [ADD1] were 5.36 ± 0.29 and 5.36 ± 0.23. Turning to IDLLTFLTGQKAVKVHGLLKTFVK [GFOD1], the protein stability index by setting is: (treatment: DMSO) 2.93 ± 0.62; (treatment: MLN4924 1 uM, 8 h) 2.67 ± 0.31. On to LLKYRAREPVTKAEMLGSVVGNWQ [MAGEA3], for which the protein stability index is, setting by setting: (treatment: DMSO) 2.39 ± 0.2; (treatment: MLN4924 1 uM, 8 h) 2.51 ± 0.28. Sequence LTDDDVVDWDEEYPPQMGEEYSQI [BTBD10] yielded a protein stability index (treatment: DMSO) of 5.15 ± 0.11 and a protein stability index (treatment: MLN4924 1 uM, 8 h) of 5.22 ± 0.19. Consider LELVKYLLAAGANVHATTATGDTA [ANKRD17], for which the protein stability index by setting is: (treatment: DMSO) 2.16 ± 0.25; (treatment: MLN4924 1 uM, 8 h) 2.08 ± 0.4. Taken in the same sequence, the figures for SVTEYRLDGHTISDLSRSSRGELI [MYBL2] were 3.67 ± 0.41 and 3.67 ± 0.38.

For GAQVNMPADSFESPLTLAACGGHV [ANKRD17], the protein stability index was found to be 4.23 ± 0.23 (treatment: DMSO) and 4.24 ± 0.12 (treatment: MLN4924 1 uM, 8 h). In the same order, the values of PSHHPTDPVELRRLNFQTPGMASH [PTPRD] are 3.79 ± 0.13 and 3.94 ± 0.34.

The record behind these values is the supplement of paper PMC10567573.
